Consider 8 molecules from patent US20250206841A1 (ADEPT THERAPEUTICS, published 2025).

Numbering of substitutions follows the chain as printed.

What is called Kd is the concentration at which binding is half-saturated. Usually koff stands for the rate constant with which the complex falls apart. Usually kon stands for the rate constant with which the complex forms. Lower therefore signals slow association.

To fix the notation:
T1: cynomolgus Trop-2-His protein (cynomolgus, UniProt P09758 27-274 (human entry))
T1 construct: also called cynmolgus Trop-His; Kactus Cat #TRP-CM121; not shown: His tag
T1 chain: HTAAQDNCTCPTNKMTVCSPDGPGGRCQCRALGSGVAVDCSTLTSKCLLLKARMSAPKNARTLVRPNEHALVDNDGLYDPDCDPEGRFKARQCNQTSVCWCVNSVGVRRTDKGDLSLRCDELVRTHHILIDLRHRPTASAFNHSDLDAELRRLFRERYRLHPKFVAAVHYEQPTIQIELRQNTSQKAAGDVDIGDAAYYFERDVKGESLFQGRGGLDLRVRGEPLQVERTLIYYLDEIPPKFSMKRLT

T2: human Trop-2-His protein (human, UniProt P09758 27-274)
T2 construct: extracellular domain; Assay paragraphs say only 'Trop-2-His'; also called hTrop-2; Kactus Cat #TRP-HM121; not shown: His tag
T2 sequence (looked up): T1 chain with V36M, N67S, S139G, V204I

B1: 12G6 (antibody, V domains shown)
VH: QEQLKESGGGLVQPGGSLTLSCKASGFDFNNYGVSWVRQAPGKGLEWIGYIYPAYHNTYYATWVNGRFTISSHNAQNTLYLQLNTLTAADTATYFCARDAGNTDYNFNLWGPGTLVTVSS
VL: DVVMTQTPASVEVAVGGTVTIKCQASEDIESYLAWYQQKPGQPPKLLIYEASKLASGVSSRFSGGGYGTEFTLTISGVECADAATYYCQQALTIGNVDNPFGGGSEVVVK
notes: Rabbit-derived clone; LEM construct: VH + rabbit IgG CH1 + human IgG1 CH2-CH3
B2: 9A5 (antibody, V domains shown)
VH: B1 VH with G49A, A54T, N102G
VL: B1 VL with V13A, K22N, E27Q, D28S
notes: as for B1
B3: 2H3 (antibody, V domains shown)
VH: B1 VH with V12G, A100T, N102T
VL: B1 VL with I94V
notes: as for B1
B4: 2H5 (antibody, V domains shown)
VH: QSLEESGGDLVQPGASLTLTCKASGFDLNNYSILWVRQAPGKGLEWIGCIYFSGGSTYYANWAKGRFAISKTSSTTVTLQMTSLTAADTATYFCARDDGTTSYYLNLWGPGTLVTVSS
VL: YDMTQTPASVSEPVGGTVTIKCQASEDIYNLLAWYQQKPGQPPKLLIYAASDLESGVPSRFKGSGSGTEYTLTISDLECADAATYYCQQAYTVGNIDNAFGGGTEVVVK
notes: as for B1
B5: 10D3 (antibody, V domains shown)
VH: B4 VH with S24A, I33M, F52I, S56T, N61S, A68T, T100S
VL: B4 VL with N30R, A49D, E54A, D76G, E78Q, A90G, V93I, A99S
notes: as for B1
B6: 10E12 (antibody, V domains shown)
VH: B4 VH with S32A, I33M, F52I, S56T, Y59F, N61S, K64T
VL: B4 VL with E12A, P13A, N30S, A49D, E54A, A80D, V93I
notes: as for B1
B7: 10F12 (antibody, V domains shown)
VH: B4 VH with K22R, I33M, F52I, S56T, Y59F, N61S, K64T, T100S
VL: B4 VL with E12A, P13A, N30S, Y48F, A49D, E54A, A80D, V93I
notes: as for B1
B8: 8H2 (antibody, V domains shown)
VH: B4 VH with S32A, I33M, F52I, S56T, Y59F, N61S, K64T, T100S
VL: B4 VL with E12A, P13A, N30S, A49D, E54A, D76A, A80D, V93I, A99T
notes: as for B1

The target of the first assay is T1, cynomolgus Trop-2-His protein. Nature of the assay: BLI (Gator Prime), LEM supernatant Ab on HFC probe. The procedure:
(§1) After three times of regeneration and neutralization of HFC probe (Gator, Cat #160003), LEM transfection supernatant samples to be tested in K buffer was diluted 1:1 in K buffer and immobilized onto HFC probe. […] The association and dissociation of human or cynomolgus Trop-2-His antigen from antibody was measured on BLI machine Gator Prime. Affinity was calculated using Gator Bio analysis software. Blank control was used for reference subtraction. 1 μg/ml of Sacituzumab govitecan was used as positive control.
(§2) Table 23 below summarizes the binding affinity of exemplary anti-Trop-2 antibodies in LEM transfection supernatant samples to human and cynomolgus Trop-2 using Gator.
With B1, the Kd came out at 0.911 nM, the koff was 0.00047 s⁻¹ and the on-rate (kon) came out at 603000 M⁻¹ s⁻¹.

The molecule B2 registered a Kd of 0.698 nM, a koff of 0.00041 s⁻¹ and an on-rate constant (kon) of 919000 M⁻¹ s⁻¹.

Regarding B3, the Kd was determined as 0.113 nM, the koff came out at 0.00013 s⁻¹ and the kon stood at 727000 M⁻¹ s⁻¹.

B4 yielded a Kd of 0.582 nM, a koff of 0.00027 s⁻¹ and a kon of 460000 M⁻¹ s⁻¹.

For the molecule B5, the Kd turned out to be 0.455 nM, the koff amounted to 0.00019 s⁻¹ and the kon is 454000 M⁻¹ s⁻¹.

In turn, B6 registered a dissociation constant (Kd) of 0.168 nM, a dissociation rate constant (koff) of 6.8e-05 s⁻¹ and an on-rate (kon) of 605000 M⁻¹ s⁻¹.

B7 registered a Kd not above 0.132 nM, an off-rate (koff) of approximately 5.62e-05 s⁻¹ and a kon of 426000 M⁻¹ s⁻¹.

In turn, B8 returned a Kd of 0.221 nM, an off-rate constant (koff) of 9.6e-05 s⁻¹ and a kon of 677000 M⁻¹ s⁻¹.

A further assay concerns the target T2, human Trop-2-His protein. Briefly: BLI (Gator Prime), LEM supernatant Ab on HFC probe. The procedure: as §1, §2
Turning to B1, the affinity, expressed as Kd, was 1.22 nM; the koff turned out to be 0.00047 s⁻¹; the kon was 386000 M⁻¹ s⁻¹.

With B2, the Kd was 0.767 nM, the koff worked out at 0.00041 s⁻¹ and the kon is 529000 M⁻¹ s⁻¹.

With B3, the Kd was determined as 0.269 nM, the koff worked out at 0.00013 s⁻¹ and the kon was 488000 M⁻¹ s⁻¹.

Turning to B4, the Kd was 0.822 nM, the koff amounted to 0.00027 s⁻¹ and the kon is 331000 M⁻¹ s⁻¹.

Molecule B5 yielded a Kd of 0.562 nM, a koff of 0.00019 s⁻¹ and a kon of 339000 M⁻¹ s⁻¹.

In the case of B6, the Kd is 0.173 nM, the koff was 6.8e-05 s⁻¹ and the kon is 391000 M⁻¹ s⁻¹.

The molecule B7 showed a Kd of 0.173 nM, a dissociation rate constant (koff) of 6.8e-05 s⁻¹ and a kon of 391000 M⁻¹ s⁻¹.

On to B8, for which binding was characterised by a dissociation constant (Kd) of 0.227 nM, the koff turned out to be 9.6e-05 s⁻¹ and the kon was 423000 M⁻¹ s⁻¹.
